The text below walks through data of patent US10363323B2, “Hydrophobic modified peptides for liver specific diagnosis” (RUPRECHT-KARLS-UNIVERSITAT HEIDELBERG, priority 2011, dated 2019).

One data set deals with liver of a WAG/Rji rat. As to conditions: 400 nmol/kg i.v., five minutes post injection, WAG/Rji rat bearing CC531 colon carcinoma. As to the method:
The rats were orthopically injected with 1×10^6 syngenic colon carcinoma cells (CC531 cells) 10 days prior to the measurements. At the day of measurement the rats received the peptide in a concentration of 400 nmol/kg body weight. During the experiments the rats were anaesthetised by isoflurane and kept at 37° C.

A short description of the next data set: Stability in the serum. As to conditions: 37° C., non-inactivated human serum from healthy donors, over the indicated period. Type of data set: in vitro ADME. As to the method: The detection of degradation products was conducted by purification of the peptides by using HPLC affinity chromatography and subsequent radioactivity determination was performed on a gamma counter at the indicated time points. The correct mass of the radioactive peak fractions eluted from the column was confirmed by mass spectrometry (data not shown).

In the case of `CCCCCCCCCCCCCCCCCC(=O)N[C@@H](CCCCNC(=O)CN1CCN(CC(=O)O)CCN(CC(=O)O)CCN(CC(=O)O)CC1)C(=O)N[C@@H](CCCCNC(=O)CN1CCN(CC(=O)O)CCN(CC(=O)O)CCN(CC(=O)O)CC1)C(=O)N[C@@H](CCCCNC(=O)CN1CCN(CC(=O)O)CCN(CC(=O)O)CCN(CC(=O)O)CC1)C(=O)N[C@@H](CC(N)=O)C(=O)N[C@@H](CC(C)C)C(=O)N[C@@H](CO)C(=O)N[C@H](C(=O)N[C@@H](CO)C(=O)N[C@@H](CC(N)=O)C(=O)N1CCC[C@H]1C(=O)N[C@@H](CC(C)C)C(=O)NCC(=O)N[C@@H](Cc1ccccc1)C(=O)N[C@@H](Cc1ccccc1)C(=O)N1CCC[C@H]1C(=O)N[C@@H](CC(=O)O)C(=O)N[C@@H](Cc1c[nH]cn1)C(=O)N[C@@H](CCC(N)=O)C(=O)N[C@@H](CC(C)C)C(=O)N[C@@H](CC(=O)O)C(=O)N1CCC[C@H]1C(N)=O)[C@@H](C)O`, the “enrichment in the liver (PET image)” value in the data set on liver of a WAG/Rji rat was “Specific enrichment”. Further, the “degradation in non-inactivated human serum (HPLC, gamma counter)” value in the data set “Stability in the serum” is listed as “Only radioactive decay but no cleavage was observed”.
